Experimental data taken from publication PMC6771824, “Topology and enzymatic properties of a canonical Polycomb repressive complex 1 isoform” (Febs Letters, 2019).

Assays:
RING1B = target: T1, RING1B (human, UniProt Q99496 1-336); assay: MST; UbcH5c labelled with NT-547 at 100 nM; RING1B (from 80 uM at 2x) or RING1B-PCGF2 (from 38 uM at 2x) in 16 serial dilutions; HEPES 50 mM pH 8, NaCl 75 mM, DTT 1 mM, Tween 0.05%; Monolith NT.115, LED 20%, MST power 40%; details: both partners purified
T1 construct: RING1B, human, catalytic E3 ligase subunit of PRC1; called full length in the discussion; primers run from the second codon to the stop codon; no cleavage of the tag is described; also called strep-tagged RING1B; catalytic subunit RING1B; source: Sf21 insect cells (MultiBac baculovirus), alone or co-expressed with other PRC1 subunits; in lysate and purified (strep-tactin resin, two S200 SEC …)
T1 sequence (looked up): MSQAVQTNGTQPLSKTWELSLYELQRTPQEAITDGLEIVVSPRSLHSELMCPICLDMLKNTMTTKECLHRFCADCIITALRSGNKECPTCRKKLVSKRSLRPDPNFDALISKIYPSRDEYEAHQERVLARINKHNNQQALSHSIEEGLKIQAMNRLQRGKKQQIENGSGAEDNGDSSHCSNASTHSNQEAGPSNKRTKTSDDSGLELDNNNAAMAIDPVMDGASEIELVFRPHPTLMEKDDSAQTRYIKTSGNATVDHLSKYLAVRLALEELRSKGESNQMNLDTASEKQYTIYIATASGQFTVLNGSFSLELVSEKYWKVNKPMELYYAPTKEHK

RING1B-PCGF2 heterodimer = target: T2, RING1B-PCGF2 heterodimer (human, UniProt Q99496 1-336; P35227 1-344); assay: as above; details: both partners purified
T2 construct: RING1B, human, full length; the same chain as m1; PCGF2 (aka Mel18), human, full length; the same chain as m2; Pre-formed complex titrated as one molecule against UbcH5c; also called RING1B-PCGF2 subcomplex; source: Sf21 insect cells (MultiBac co-expression), purified (strep-tactin resin, two S200 SEC steps)
T2 sequence (looked up) 1: T1 sequence (looked up)
T2 sequence (looked up) 2: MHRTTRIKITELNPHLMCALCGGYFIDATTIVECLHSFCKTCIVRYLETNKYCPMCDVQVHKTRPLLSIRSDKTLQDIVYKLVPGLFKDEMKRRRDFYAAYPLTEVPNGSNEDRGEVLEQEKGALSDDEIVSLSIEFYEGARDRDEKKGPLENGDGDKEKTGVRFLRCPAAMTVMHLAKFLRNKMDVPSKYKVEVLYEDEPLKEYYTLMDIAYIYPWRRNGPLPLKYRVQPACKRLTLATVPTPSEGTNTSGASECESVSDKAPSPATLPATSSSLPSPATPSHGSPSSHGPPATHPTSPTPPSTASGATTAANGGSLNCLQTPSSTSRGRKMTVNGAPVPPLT

B1: UbcH5c (enzyme)
chain: not shown
modifications: NT-547 fluorescent dye on Cys85
notes: UbcH5c, ubiquitin-conjugating E2 enzyme; also called UbcH5c E2 enzyme; E2 enzyme; source: E. coli Rosetta (DE3), purified (GST resin, 3C cleavage, Ni-NTA flow-through, S200 SEC)
In the case of B1, the Kd (RING1B) is reported as 230 ± 80 nM and the Kd (RING1B-PCGF2 heterodimer) is reported as 4100 ± 1000 nM.
